Assay results from publication PMC10635575.

What was measured:
[1] = target: CZA97.012 SOSIP.664 trimer (HIV-1, Clade C, clone CZA97.012 (97ZA.012)); assay: SPR
[2] = target: CZA97.012 SOSIP.664 trimer, His-tagged, 2G12-affinity- and then SEC-purified (HIV-1 (Clade C, clone CZA97.012)); assay: SPR
[3] = target: CZA97.012 SOSIP.664 trimer (HIV-1, Clade C, clone CZA97.012 (97ZA.012))
[4] = N-glycosylation at N411
[5] = target: CZA97.012 SOSIP.664 trimer (HIV-1, Clade C, clone CZA97.012 (97ZA.012)); assay: cryo-EM structure
[6] = target: CZA97.012 SOSIP.664 trimer (HIV-1, Clade C, clone CZA97.012 (97ZA.012)); assay: negative-stain electron microscopy; trimer purified by 2G12-, PGT145- or PGT151-affinity chromatography and then SEC, ~0.02 mg/mL, 2% uranyl formate, 2D class averages
[7] = target: CZA97.012 SOSIP.664 trimer (HIV-1, Clade C, clone CZA97.012 (97ZA.012)); remark: listed apart in the source

Work on 3BNC117 Fab yielded a stoichiometry N [1] of 2.8, a Kd [2] of 15 nM and a koff [2] of 0.00014 s⁻¹. For the same molecule, the kon [2] was 9700 M⁻¹ s⁻¹, the stoichiometry N [2] was 2.7 and the IC50 of neutralization of CZA97.012 pseudovirus (Env on virions) by 3BNC117 IgG, TZM-bl assay [3] was 0.32 µg/mL.

With “CZA97.012 Env, D411N mutant: D411N (PNGS knock-in) vs parental; neutralization by autologous rabbit sera 2082 and 2084” the other [4] was “decreases”.

In the case of “CZA97.012 Env, D411N mutant: D411N (PNGS knock-in) vs parental; neutralization by autologous rabbit serum 2086”, the other [4] is reported as “decreases”.

In the case of “CZA97.012 Env, D411N mutant: D411N (PNGS knock-in) vs parental; neutralization by bNAbs”, the other [4] is reported as “no change”.

Work on CZA97.012 SOSIP.664 trimer (complex) yielded a stoichiometry N [5] of 3 and a stoichiometry N [6] of 3.

B1: PGT145 (antibody, V domains shown)
VH: QVQLVQSGAEVKKPGSSVKVSCKASGNSFSNHDVHWVRQATGQGLEWMGWMSHEGDKTGLAQKFQGRVTITRDSGASTVYMELRGLTADDTAIYYCLTGSKHRLRDYFLYNEYGPNYEEWGDYLATLDVWGHGTAVTVSS
VL: EVVITQSPLFLPVTPGEAASLSCKCSHSLQHSTGANYLAWYLQRPGQTPRLLIHLATHRASGVPDRFSGSGSGTDFTLKISRVESDDVGTYYCMQGLHSPWTFGQGTKVEIK
Molecule B1 has an IC50 of neutralization of CZA97.012 pseudovirus (Env on virions) by PGT145 IgG, TZM-bl assay [7] of 7.6 µg/mL.
